These results are taken from PMC6224480, “Insights into Kinesin-1 Activation from the Crystal Structure of KLC2 Bound to JIP3” (Structure(London, England:1993), 2018).

The subject of series [1] is KLC2^TPR-myc Arg^312Glu (R312E). Briefly: ITC of Trp-JIP3^LZ into R312E KLC2^TPR-myc. Type of series: binding, murine. The source says: The KLC2^TPR construct used in this work comprised murine KLC2 residues 191-480, which is similar to those used in previous studies ([Nguyen et al., 2017], [Zhu et al., 2012]) but with a slightly longer N-terminal region to include residues 191-194, which are very highly conserved in Bilaterian KLCs. To construct the pMW-His6-SUMO-KLC2^TPR vector, the sequence encoding KLC2^TPR (residues 191-480) was amplified by PCR from a murine template ([Dodding et al., 2011]) and cloned into the NotI/EcoRI sites of pMW his-SUMO. […]
The Trp-JIP3^LZ protein used for CD and ITC experiments was prepared as described above for the JIP3^LZ, with the following modifications. […] The Trp-JIP3^LZ and KLC2^TPR-myc samples used in the fluorescence anisotropy-based binding competition assays were prepared as for those used in the CD and ITC studies, but the final size-exclusion step was performed in 100 mM NaCl, 25 mM HEPES, 5mM MgCl2, 1 mM TCEP (final pH 7.5).
(§1) To study binding of the Trp-JIP3^LZ and FITC-CSTN-WD2 peptide to wild-type and mutant KLC2^TPR-myc, the recombinant proteins were prepared by size exclusion chromatography in 0.1 M NaCl, 25 mM HEPES, 1 mM TCEP, final pH 7.5. […] The peptide concentration was determined by measuring the absorbance at 483 nm and using a molar extinction coefficient of 68,000 M^-1cm^-1. […] The resulting isotherms were analysed in SEDPHAT. […]

Series [2] deals with wild-type and mutant KLC2^TPR-myc. Briefly: ITC with wild-type and/or TPR1-mutant KLC2^TPR-myc (collective statements). Conditions: all three mutations in TPR1 of KLC2^TPR-myc; ITC. In kind it is binding, murine. On the procedure: The Trp-JIP3^LZ protein used for CD and ITC experiments was prepared as described above for the JIP3^LZ, with the following modifications. Following 3C cleavage, contaminating GST3C was removed by incubation of the eluate with fresh, pre-equilibrated glutathione sepharose 4B resin for 2 hours at room temperature. The Trp-JIP3^LZ was then further purified by size exclusion chromatography using a Superdex 75 16/600 column equilibrated in 100 mM NaCl, 25 mM HEPES, 1 mM TCEP (final pH 7.5). Wild-type/mutant KLC2^TPR-myc samples used for CD and ITC experiments were prepared as described above the KLC2^TPR used in crystallographic studies. The Trp-JIP3^LZ and KLC2^TPR-myc samples used in the fluorescence anisotropy-based binding competition assays were prepared as for those used in the CD and ITC studies, but the final size-exclusion step was performed in 100 mM NaCl, 25 mM HEPES, 5mM MgCl2, 1 mM TCEP (final pH 7.5).
as §1

The target in the next series is T1, KLC2^TPR-myc (Mus musculus, UniProt O88448).
T1 construct: comprised murine KLC2 residues 191-480; His6-SUMO (N, cleaved yes); made in house; host or cells: E. coli BL21(DE3) Rosetta
T1 sequence (O88448 191-480): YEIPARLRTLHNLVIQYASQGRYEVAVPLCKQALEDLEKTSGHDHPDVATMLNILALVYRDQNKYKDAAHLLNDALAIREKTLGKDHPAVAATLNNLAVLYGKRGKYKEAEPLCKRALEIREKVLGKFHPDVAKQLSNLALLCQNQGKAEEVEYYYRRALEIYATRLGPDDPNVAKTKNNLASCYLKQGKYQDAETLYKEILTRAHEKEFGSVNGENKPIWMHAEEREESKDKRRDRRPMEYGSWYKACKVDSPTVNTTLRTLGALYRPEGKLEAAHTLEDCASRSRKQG
Briefly: Fluorescence anisotropy-based binding competition against FITC-LFP motif peptide. Set-up: species or system murine. Conditions: FITC-LFP peptide 300 nM, KLC2^TPR-myc 21 μM, Trp-JIP3^LZ two independent experiments, CSTN-WD1 one experiment. The source says:
Kinesin-1 activation by JIP3 requires JIP3^LZ binding to KLC^TPR ([Watt et al., 2015]). How does JIP3^LZ binding to the KLC^TPR relieve KLC regulation of the kinesin-1 molecule? Tryptophan-acidic cargoes activate kinesin-1 by releasing the KLC LFP motif from the KLC^TPR ([Yip et al., 2016]). […] We therefore wondered whether JIP3^LZ binding to the KLC2^TPR allosterically regulates interactions between KLC2^TPR and the LFP motif. We investigated this using an in vitro, fluorescence anisotropy-based binding competition assay with purified proteins and peptides ([Yip et al., 2016]). […] Thus, JIP3 activates kinesin-1 by a different mechanism to tryptophan-acidic cargoes.
The binding affinity between the FITC-labelled LFP-motif peptide and the KLC2^TPR-myc was measured essentially as described previously ([Yip et al., 2016]). FITC-labelled LFP motif peptide (300 nM) was incubated with 2-fold dilutions of KLC2^TPR-myc in assay buffer (0.1 M NaCl, 25 mM HEPES, 5 mM MgCl2, 1 mM TCEP, final pH 7.5) in triplicate in 384-well plates, for 1 hour at room temperature. Fluorescence measurements were recorded on a TecanSpark plate reader at excitation and emission wavelengths of 488 nm and 535 nm respectively. Fluorescence anisotropy values were calculated at each KLC2^TPR-myc concentration and the data were fitted with a fixed-slope dose response curve in Prism (GraphPad). […]
In general terms: In fluorescence polarisation assays a small probe gives low polarisation when free and higher when bound to something large.

The nature of another series: CD spectroscopy. Type of series: physicochemical. To be noted: 20°C, 20 mM potassium phosphate pH 7.5, 0.5 mM DTT. The procedure:
All CD spectra were recorded on a Chirascan CD spectrometer (Applied Photophysics) in quartz cuvettes with a 0.1 cm path length. Data were recorded at 20°C between 260 - 180 nm in 1 nm increments and a 2 nm bandwidth over an average of two scans. The KLC2^TPR-myc and Trp-JIP3^LZ proteins were dialysed extensively into 20 mM potassium phosphate pH 7.5, 0.5 mM DTT. Spectra were collected from KLC2^TPR-myc samples at concentrations of 0.29, 0.14 and 0.086 mg/ml. Trp-JIP3^LZ spectra were collected at 0.15, 0.074 and 0.044 mg/ml. One spectrum was recorded for each sample at each concentration and background-corrected by subtraction of a buffer-only spectrum. Corrected spectra were converted to units of mean residue ellipticity and deconvolved using the Dichroweb server ([Whitmore and Wallace, 2008]). KLC2^TPR-myc and Trp-JIP3^LZ spectra were analysed using the SELCON3 and CONTIN algorithms, respectively, using reference dataset set 4 ([Sreerama et al., 1999], [van Stokkum et al., 1990]). For each protein, the mean percentage of each secondary structure type, and the corresponding standard deviation, was calculated from the values obtained from the three concentrations. The secondary structure content for KLC2^TPR-myc and Trp-JIP3^LZ were calculated using the KLC2^TPR:JIP3^LZ crystal structure using the STRIDE server (http://webclu.bio.wzw.tum.de/cgi-bin/stride/stridecgi.py) ([Frishman and Argos, 1995]).

B1: Trp-JIP3^LZ: JIP3^LZ construct N-terminally fused to a tryptophan residue (protein)
chain: WMGKEVGNLLLENSQLLETKNALNVVKNDLIAKVDQLSGEQEVLKGELEAAKQAKVKLENRIKELEEELKRV
modifications: left off: GST, N-terminal, cleaved
notes: JIP3^LZ construct N-terminally fused to a tryptophan residue
As for B1, the “binding to Arg^312Glu mutant” value in series [1] was “retained the ability to bind”. For the same molecule, in series [2], the “effect of the three TPR1 mutations on binding” value is “completely abrogated binding”. Besides, in the series with KLC2^TPR-myc, the “effect on binding of KLC2^TPR-myc to FITC-labeled LFP motif peptide” value is “no effect”. Also, the “mean α-helical content” value in the series “CD spectroscopy” (CONTIN deconvolution, mean and SD from three concentrations (0.15, 0.074, 0.044 mg/ml)) was 59% ± 3%. Also, the “ratio of ellipticities at 222 and 208 nm” value in the series “CD spectroscopy” (n = 3) amounted to 0.88 ± 0.01.
